According to US11649460B2, “DNA aptamers, method for inhibiting human galectin-1 and method of treating a mammal in need thereof” (priority 2020, dated 2023):

Experiments:
galectins = details: in vitro; cited from earlier work
OVCAR-3 cell line = test: Synergism test with cisplatin, OVCAR-3; details: cisplatin 3 μM
Description: For the analysis of cell proliferation, the non-clonogenic method of sulforodamine B (SRB) was used, a protein dye that binds to the basic amino acid residues of cell proteins that were viable at the time of the fixation process. Therefore, the greater the amount of SRB bound per compartment, the less the antiproliferative activity of the item under study.

[1] = test system: MCF-7 human breast adenocarcinoma cell line; test: SRB cell proliferation (cytotoxicity) assay, MCF-7
Excerpt: (§1) The XLSTAT software was used to determine the IC50, TGI and LC50 values using the four-parameter logistic curve equation.

[2] = test system: SK-BR-3 human breast adenocarcinoma; test: SRB cell proliferation (cytotoxicity) assay, SK-BR-3
Excerpt: as §1

[3] = target: T1, native human galectin-1 (hGal1) (Homo sapiens, UniProt P09382); test: Thermofluor thermal shift assay (TSA), native galectin-1; assay type: binding; details: 5 μM protein
T1 construct: 42; made in house; host or cells: E. coli strain M-15
T1 sequence (P09382 2-135): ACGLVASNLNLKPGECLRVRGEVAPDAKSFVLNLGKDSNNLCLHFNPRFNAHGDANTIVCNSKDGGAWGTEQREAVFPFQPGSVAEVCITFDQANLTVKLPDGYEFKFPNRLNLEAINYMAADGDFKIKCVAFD
Description: In an attempt to screen among the selected aptamers that better interact with hGal1, differential scanning fluorimetry (Termofluor) was used to characterize their binding to its target. Among all the selected aptamers, SEQ ID NO.: 4 seemed to have a more intense effect on hGal1 thermoshift and so was chosen for further analysis. The selected aptamer had its interaction evaluated with native and alkylated galectin-1. […] The respective thermal displacements were evaluated as a function of an increasing concentration of SEQ ID NO.: 4 (FIG. 1).
Thermofluor experiments were performed on an Mx3005 RT-PCR (Agilent Technologies) using the SYPRO® Orange dye (492/610 nm) (Invitrogen) as fluorescent probe. The purified (native and alkylated) protein samples were incubated for 30 min with increasing concentration of the molecules of interest, centrifuged, and submitted to the thermal denaturation assay, totalizing four distinct experiments. In a 96-well plate (Agilent Technologies) 20 μl of the reaction containing 5 μM of each protein in buffer PBS 1× and 5× SYPRO® Orange were heated from 25° C. to 95° C. at a rate of 1° C./min. The experimental result was processed as in the protocol previously described and the melting temperature was obtained using GraphPad Prism software (www.graphpad.com).

[4] = test system: HCT 116 human colorectal carcinoma; test: SRB cell proliferation (cytotoxicity) assay, HCT 116
Excerpt: as §1

[5] = test system: DU-145 human prostate carcinoma cell line; test: SRB cell proliferation (cytotoxicity) assay, DU-145
Excerpt: as §1

[6] = target: T2, hGal1-induced hemagglutination of red blood cells (Homo sapiens, UniProt P09382); test: Hemagglutination inhibition assay, native hGal1; assay type: cell-based; details: native Gal1 5 μM
T2 construct: 42; made in house; host or cells: E. coli strain M-15
T2 sequence (P09382 2-135): as above
Description: Hemagglutination Inhibition Assay
Hemagglutination assay was adopted to assess the capacity of SEQ ID NO.: 4 in inhibiting the lectin cross-linking aggregation of red blood cells (RBC), as previously described. Briefly, using a 96-well microplates appropriate amounts of 5 μM hGal1 were blended with 50 μL of aptamer in an increasing concentrations manner (0-40 μM) in PBS 1× buffer (pH 7.4). Following, 50 μL of 3% purified type B+ RBC in PBS. After 2 h of room temperature incubation, the plate was photographed and the hemagglutination area was estimated by area calculator Sketchandcalc™ and the results were expressed as relative agglutination.

[7] = test system: A-375 human malignant melanoma; test: SRB cell proliferation (cytotoxicity) assay, A-375
Excerpt: as §1

[8] = test system: NHF human foreskin skin fibroblasts; test: in vitro
Excerpt: as §1

[9] = test system: seven cell lines of solid human tumors; test: SRB antiproliferative assay, panel of tumor lines; assay type: cell-based; details: read-out: 50% growth inhibitory concentrations (IC50); all tumor cell lines assessed
Excerpt: as §1

[10] = test system: HT-29 human colorectal adenocarcinoma; test: SRB cell proliferation (cytotoxicity) assay, HT-29
Excerpt: as §1

[11] = test system: OVCAR-3 human ovarian adenocarcinoma cell line; test: SRB cell proliferation (cytotoxicity) assay, OVCAR-3
Excerpt: as §1

1-methyl derivative of LacNac
Kd (galectins): 70 µM

B1: AGCTGACACAGCAGGTTGGTGCCAACAAGAAAAGAAACCGTTACAGAAGACACTACAGAATAAGTGAAAAGCCGAGTCGAGCAATCTCGAAAT (nucleic acid)
DNA: AGCTGACACAGCAGGTTGGTGCCAACAAGAAAAGAAACCGTTACAGAAGACACTACAGAATAAGTGAAAAGCCGAGTCGAGCAATCTCGAAAT
modifications: chemistry not given here
effect on the profile of antiproliferative activity in association with cisplatin (OVCAR-3 cell line): substantially improved
Relative viability (%) of test items ([1]; 0.781 µM): 86.4%
Relative viability (%) of test items ([1]; 1.562 µM): 85.8%
Relative viability (%) of test items ([1]; 3.125 µM): 83.0%
Relative viability (%) of test items ([1]; 6.25 µM): 74.2%
Relative viability (%) of test items ([1]; 12.5 µM): 63.0%
Relative viability (%) of test items ([1]; 25 µM): 47.1%
Relative viability (%) of test items ([1]; 50 µM): 25.6%
Relative viability (%) of test items ([1]; 100 µM): −29.0%
TGI: Concentration for total inhibition of cell growth ([1]; MCF-7): 70.609 µM
IC50 ([1]; read-out: IC50: Concentration to inhibit 50% of cell growth, MCF-7): 24.3 µM
CC50 ([1]; read-out: LC50: Concentration for 50% cell death, MCF-7): > 100 µM
Relative cell viability (%) of test items ([2]; 0.781 µM): 98.0%
Relative cell viability (%) of test items ([2]; 1.562 µM): 99.1%
Relative cell viability (%) of test items ([2]; 3.125 µM): 113.9%
Relative cell viability (%) of test items ([2]; 6.25 µM): 95.4%
Relative cell viability (%) of test items ([2]; 12.5 µM): 90.0%
Relative cell viability (%) of test items ([2]; 25 µM): 50.2%
Relative cell viability (%) of test items ([2]; 50 µM): −8.6%
Relative cell viability (%) of test items ([2]; 100 µM): −66.5%
TGI: Concentration for total inhibition of cell growth ([2]; SK-BR-3): 45.137 µM
IC50 ([2]; read-out: IC50: Concentration to inhibit 50% of cell growth, SK-BR-3): 26 µM
CC50 ([2]; read-out: LC50: Concentration for 50% cell death, SK-BR-3): 78.6 µM
variation of denaturation temperature (Tm) of native hGal1 [3]: greater variation
Relative cell viability (%) of test items ([4]; 0.781 µM): 95.9%
Relative cell viability (%) of test items ([4]; 1.562 µM): 97.5%
Relative cell viability (%) of test items ([4]; 3.125 µM): 99.9%
Relative cell viability (%) of test items ([4]; 6.25 µM): 96.1%
Relative cell viability (%) of test items ([4]; 12.5 µM): 69.4%
Relative cell viability (%) of test items ([4]; 25 µM): 27.9%
Relative cell viability (%) of test items ([4]; 50 µM): 6.3%
Relative cell viability (%) of test items ([4]; 100 µM): −47.3%
TGI: Concentration for total inhibition of cell growth ([4]; HCT 116): 47.447 µM
IC50 ([4]; read-out: IC50: Concentration to inhibit 50% of cell growth, HCT 116): 20.2 µM
CC50 ([4]; read-out: LC50: Concentration for 50% cell death, HCT 116): > 100 µM
Relative viability (%) of test items ([5]; 0.781 µM): 94.8%
Relative viability (%) of test items ([5]; 1.562 µM): 106.3%
Relative viability (%) of test items ([5]; 3.125 µM): 104.4%
Relative viability (%) of test items ([5]; 6.25 µM): 105.3%
Relative viability (%) of test items ([5]; 12.5 µM): 92.2%
Relative viability (%) of test items ([5]; 25 µM): 72.4%
Relative viability (%) of test items ([5]; 50 µM): 32.5%
Relative viability (%) of test items ([5]; 100 µM): −39.4%
TGI: Concentration for total inhibition of cell growth ([5]; DU-145): 69.568 µM
IC50 ([5]; read-out: IC50: Concentration to inhibit 50% of cell growth, DU-145): 39.3 µM
CC50 ([5]; read-out: LC50: Concentration for 50% cell death, DU-145): > 100 µM
inhibitory effect on galectin-induced hemagglutination [6]: better effect
Relative cell viability (%) of test items ([7]; 0.781 µM): 92.6%
Relative cell viability (%) of test items ([7]; 1.562 µM): 84.5%
Relative cell viability (%) of test items ([7]; 3.125 µM): 87.7%
Relative cell viability (%) of test items ([7]; 6.25 µM): 74.2%
Relative cell viability (%) of test items ([7]; 12.5 µM): 81.1%
Relative cell viability (%) of test items ([7]; 25 µM): 65.8%
Relative cell viability (%) of test items ([7]; 50 µM): 51.6%
Relative cell viability (%) of test items ([7]; 100 µM): −72.1%
TGI: Concentration for total inhibition of cell growth ([7]; A-375): 74.279 µM
IC50 ([7]; read-out: IC50: Concentration to inhibit 50% of cell growth, A-375): 47.9 µM
CC50 ([7]; read-out: LC50: Concentration for 50% cell death, A-375): 93.1 µM
Relative viability (%) of test items ([8]; 0.781 µM): 103.3%
Relative viability (%) of test items ([8]; 1.562 µM): 101.8%
Relative viability (%) of test items ([8]; 3.125 µM): 93.5%
Relative viability (%) of test items ([8]; 6.25 µM): 96.1%
Relative viability (%) of test items ([8]; 12.5 µM): 101.4%
Relative viability (%) of test items ([8]; 25 µM): 66.8%
Relative viability (%) of test items ([8]; 50 µM): 24.3%
Relative viability (%) of test items ([8]; 100 µM): −32.9%
TGI: Concentration for total inhibition of cell growth ([8]; NHF): 64.820 µM
IC50 ([8]; read-out: IC50: Concentration to inhibit 50% of cell growth, NHF): 35.7 µM
CC50 ([8]; read-out: LC50: Concentration for 50% cell death, NHF): > 100 µM
IC50 [9]: < 25 µM
Relative cell viability (%) of test items ([10]; 0.781 µM): 90.8%
Relative cell viability (%) of test items ([10]; 1.562 µM): 93.7%
Relative cell viability (%) of test items ([10]; 3.125 µM): 103.0%
Relative cell viability (%) of test items ([10]; 6.25 µM): 94.2%
Relative cell viability (%) of test items ([10]; 12.5 µM): 78.3%
Relative cell viability (%) of test items ([10]; 25 µM): 32.7%
Relative cell viability (%) of test items ([10]; 50 µM): 15.7%
Relative cell viability (%) of test items ([10]; 100 µM): −71.9%
TGI: Concentration for total inhibition of cell growth ([10]; HT-29): 53.711 µM
IC50 ([10]; read-out: IC50: Concentration to inhibit 50% of cell growth, HT-29): 25.1 µM
CC50 ([10]; read-out: LC50: Concentration for 50% cell death, HT-29): 85.8 µM
Relative viability (%) of test items ([11]; 0.781 µM): 79.9%
Relative viability (%) of test items ([11]; 1.562 µM): 90.2%
Relative viability (%) of test items ([11]; 3.125 µM): 77.9%
Relative viability (%) of test items ([11]; 6.25 µM): 59.2%
Relative viability (%) of test items ([11]; 12.5 µM): 34.7%
Relative viability (%) of test items ([11]; 25 µM): 16.9%
Relative viability (%) of test items ([11]; 50 µM): −3.7%
Relative viability (%) of test items ([11]; 100 µM): −51.1%
TGI: Concentration for total inhibition of cell growth ([11]; OVCAR-3): 39.740 µM
IC50 ([11]; read-out: IC50: Concentration to inhibit 50% of cell growth, OVCAR-3): 9.46 µM
CC50 ([11]; read-out: LC50: Concentration for 50% cell death, OVCAR-3): > 100 µM
